Here are results for two proteins from publication PMC11933459 (Nature Communications, 2025).

Series [1] concerns the molecule itself. The series is described as follows: cryo-EM structure.
Series [2] concerns the molecule itself. The series is described as follows: cryo-EM structure. The source holds these as a separate data set.

B1: Full-length human XPR1 (wild type), purified, tags removed (natural protein, UniProt Q9UBH6 1-696, looked up)
chain: MKFAEHLSAHITPEWRKQYIQYEAFKDMLYSAQDQAPSVEVTDEDTVKRYFAKFEEKFFQTCEKELAKINTFYSEKLAEAQRRFATLQNELQSSLDAQKESTGVTTLRQRRKPVFHLSHEERVQHRNIKDLKLAFSEFYLSLILLQNYQNLNFTGFRKILKKHDKILETSRGADWRVAHVEVAPFYTCKKINQLISETEAVVTNELEDGDRQKAMKRLRVPPLGAAQPAPAWTTFRVGLFCGIFIVLNITLVLAAVFKLETDRSIWPLIRIYRGGFLLIEFLFLLGINTYGWRQAGVNHVLIFELNPRSNLSHQHLFEIAGFLGILWCLSLLACFFAPISVIPTYVYPLALYGFMVFFLINPTKTFYYKSRFWLLKLLFRVFTAPFHKVGFADFWLADQLNSLSVILMDLEYMICFYSLELKWDESKGLLPNNSEESGICHKYTYGVRAIVQCIPAWLRFIQCLRRYRDTKRAFPHLVNAGKYSTTFFMVTFAALYSTHKERGHSDTMVFFYLWIVFYIISSCYTLIWDLKMDWGLFDKNAGENTFLREEIVYPQKAYYYCAIIEDVILRFAWTIQISITSTTLLPHSGDIIATVFAPLEVFRRFVWNFFRLENEHLNNCGEFRAVRDISVAPLNADDQTLLEQMMDQDDGVRNRQKNRSWKYNQSISLRRPRLASQSKARDTKVLIEDTDDEANT
Take B1: the “stoichiometry N” value in the series “cryo-EM structure [1]” is 2.

B2: XPR1-E622A/F623A mutant (full-length human XPR1), purified, tags removed (natural protein, UniProt Q9UBH6 1-696, looked up)
chain: MKFAEHLSAHITPEWRKQYIQYEAFKDMLYSAQDQAPSVEVTDEDTVKRYFAKFEEKFFQTCEKELAKINTFYSEKLAEAQRRFATLQNELQSSLDAQKESTGVTTLRQRRKPVFHLSHEERVQHRNIKDLKLAFSEFYLSLILLQNYQNLNFTGFRKILKKHDKILETSRGADWRVAHVEVAPFYTCKKINQLISETEAVVTNELEDGDRQKAMKRLRVPPLGAAQPAPAWTTFRVGLFCGIFIVLNITLVLAAVFKLETDRSIWPLIRIYRGGFLLIEFLFLLGINTYGWRQAGVNHVLIFELNPRSNLSHQHLFEIAGFLGILWCLSLLACFFAPISVIPTYVYPLALYGFMVFFLINPTKTFYYKSRFWLLKLLFRVFTAPFHKVGFADFWLADQLNSLSVILMDLEYMICFYSLELKWDESKGLLPNNSEESGICHKYTYGVRAIVQCIPAWLRFIQCLRRYRDTKRAFPHLVNAGKYSTTFFMVTFAALYSTHKERGHSDTMVFFYLWIVFYIISSCYTLIWDLKMDWGLFDKNAGENTFLREEIVYPQKAYYYCAIIEDVILRFAWTIQISITSTTLLPHSGDIIATVFAPLEVFRRFVWNFFRLENEHLNNCGAARAVRDISVAPLNADDQTLLEQMMDQDDGVRNRQKNRSWKYNQSISLRRPRLASQSKARDTKVLIEDTDDEANT
For B2, the binding result in “cryo-EM structure [2]” is on record as “binds”.

The stoichiometry N is the number of molecules, sites or subunits per partner or assembly.
